Measurements published in the supplement of paper PMC7877785.
± gives the uncertainty stated by the source.

Test: self-splicing fitness, log relative to wild type (ln ratio); higher = more splicing; Tetrahymena group I intron in knt gene, E. coli kanamycin selection, DiMSum; sequences stand for … in CUCUCU…GGAGGGAAAAGUUAUCAGGCAUGCACCUGGUAGCUAGUCUUUAAACCAAUAGAUUGCAUCGGUUUAAAAGGCAAGACCGUCAAAUUGCGGGAAAGGGGUCAACAGCCGUUCAGUACCAAGUCUCAGGGGAAACUUUGAGAUGGCCUUGCAAAGGGUAUGGUAAUAAGCUGACGGACAUGGUCCUAACCACGCAGCCAAGUCCUAAGUCAACAGAUCUUCUGUUGAUAUGGAUGCAGUUCACAGACUAAAUGUCGGUCGGGGAAGAUGUAUUCUUCUCAUAAGAUAUAGUCGGACCUCUCCUUAAUGGGAGCUAGCGGAUGAAGUGAUGCAACACUGGAGCCGCUGGGAACUAAUUUGUAUGCGAAAGUAUAUUGAUUAGUUUUGGAGUACUCGUGGUCG
Outline: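 Fitness was computed with DiMSum as the error-weighted combination of replicate fold changes, kanamycin versus none, each normalised to wild type. The library randomised all eight intron nucleotides of the P1ex region, with the intron placed in the knt kanamycin-resistance gene on pET-22b(+) in E. coli BL21(DE3). Six replicate transformations were grown overnight at 37°C or 30°C on LB agar with or without 25 μg/mL kanamycin, plus 100 μg/mL carbenicillin, 50 μM IPTG and 0.2% rhamnose. Pooled colonies were amplicon-sequenced on an Illumina HiSeq 2500.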

Sequence	self-splicing fitness (ln) (30 °C)	self-splicing fitness (ln) (37 °C)
GGCGAGCAAUAUUACGAAAU	-2.66 ± 0.25	-0.868 ± 0.19
GGCGAGCAAUAUUACGAACC	-2.56 ± 0.071	-1.11 ± 0.085
GGCGAGCAAUAUUACGAAGA		-1.49 ± 0.47
GGCGAGCAAUAUUACGACAG	-3.57 ± 0.32	
GGCGAGCAAUAUUACGACCA	-2.38 ± 0.39	-1.05 ± 0.42
GGCGAGCAAUAUUACGAGUC	-1.61 ± 0.36	
GGCGAGCAAUAUUACGAUCA	-1.18 ± 0.17	-0.735 ± 0.18
GGCGAGCAAUAUUACGAUUG	-2.49 ± 0.13	-2.05 ± 0.2
GGCGAGCAAUAUUACGCACG	-2.49 ± 0.28	-2.71 ± 0.36
GGCGAGCAAUAUUACGGACA	-0.299 ± 0.23	-0.824 ± 0.28
GGCGAGCAAUAUUACGGACC		-0.87 ± 0.4
GGCGAGCAAUAUUACGGACG	-0.223 ± 0.1	-0.489 ± 0.21
GGCGAGCAAUAUUACGGAGC		-2.17 ± 0.37
GGCGAGCAAUAUUACGGCCC	0.209 ± 0.31	
GGCGAGCAAUAUUACGGGGU	-3.47 ± 0.25	
GGCGAGCAAUAUUACGGGUA	-3.42 ± 0.26	-2.79 ± 0.2
GGCGAGCAAUAUUACGGUAU	-2.08 ± 0.13	-1.04 ± 0.17
GGCGAGCAAUAUUACGGUUA	-1.07 ± 0.11	0.0284 ± 0.088
GGCGAGCAAUAUUACGUAUC	-1.61 ± 0.14	-0.00113 ± 0.13
GGCGAGCAAUAUUACGUCCG	-3.67 ± 0.35	-2.39 ± 0.32
GGCGAGCAAUAUUACGUUGA	-1.56 ± 0.13	-2.18 ± 0.15
GGCGAGCAAUAUUACGUUUU	-1.35 ± 0.094	-1.35 ± 0.14
GGCUAGCAAUAUUACGAACA	-1.01 ± 0.15	-0.682 ± 0.15
GGCUAGCAAUAUUACGAGAU	-3.58 ± 0.21	-1.34 ± 0.14
GGCUAGCAAUAUUACGAGGU	-3.02 ± 0.42	-1.07 ± 0.18

Sequence	self-splicing fitness (ln) (30 °C)	self-splicing fitness (ln) (37 °C)
GGCUAGCAAUAUUACGAUAA	-1.28 ± 0.17	-1.75 ± 0.16
GGCUAGCAAUAUUACGAUGC	-1.03 ± 0.15	-0.519 ± 0.28
GGCUAGCAAUAUUACGCCAA	-2 ± 0.11	-0.903 ± 0.16
GGCUAGCAAUAUUACGCGCA	0.157 ± 0.096	-0.145 ± 0.13
GGCUAGCAAUAUUACGCGCC	-3.69 ± 0.34	-2.17 ± 0.38
GGCUAGCAAUAUUACGCGUU	-0.656 ± 0.066	-0.29 ± 0.08
GGCUAGCAAUAUUACGCUCU	-2.35 ± 0.31	-0.975 ± 0.19
GGCUAGCAAUAUUACGGAAU	-0.705 ± 0.072	-0.0885 ± 0.1
GGCUAGCAAUAUUACGGAGA	-3.65 ± 0.37	
GGCUAGCAAUAUUACGGAUA	-0.897 ± 0.13	-0.492 ± 0.15
GGCUAGCAAUAUUACGGCCA	-1.53 ± 0.21	-0.776 ± 0.26
GGCUAGCAAUAUUACGGCUU	-1.31 ± 0.17	0.197 ± 0.21
GGCUAGCAAUAUUACGGGAC	-3.59 ± 0.3	-0.762 ± 0.21
GGCUAGCAAUAUUACGGGCG	-1.34 ± 0.095	-0.19 ± 0.12
GGCUAGCAAUAUUACGGUUA	0.156 ± 0.084	0.606 ± 0.089
GGCUAGCAAUAUUACGGUUC	-1.31 ± 0.056	-0.331 ± 0.072
GGCUAGCAAUAUUACGUAAC	-0.594 ± 0.083	-0.442 ± 0.11
GGCUAGCAAUAUUACGUAAG	-1.64 ± 0.068	-0.594 ± 0.094
GGCUAGCAAUAUUACGUAGC	-4.64 ± 0.42	-2.16 ± 0.43
GGCUAGCAAUAUUACGUCUG	-4.06 ± 0.31	-2.13 ± 0.17
GGCUAGCAAUAUUACGUGGC	-2.66 ± 0.28	-1.23 ± 0.28
GGCUAGCAAUAUUACGUUAA	-1.24 ± 0.091	-0.642 ± 0.12
GGGAAGCAAUAUUACGACGU	-0.169 ± 0.15	0.767 ± 0.17
GGGAAGCAAUAUUACGAUUG	-3.59 ± 0.21	-3.25 ± 0.3
GGGAAGCAAUAUUACGCUAU	-2.75 ± 0.19	-0.951 ± 0.14

Sequence	self-splicing fitness (ln) (30 °C)	self-splicing fitness (ln) (37 °C)
GGGAAGCAAUAUUACGGACC	-3.81 ± 0.4	-2.35 ± 0.46
GGGAAGCAAUAUUACGGACU	-1.99 ± 0.17	-0.24 ± 0.19
GGGAAGCAAUAUUACGGAUC	-0.0316 ± 0.077	-0.684 ± 0.088
GGGAAGCAAUAUUACGGCUA	-0.707 ± 0.089	0.0151 ± 0.12
GGGAAGCAAUAUUACGGGAG	-3.28 ± 0.32	-2.09 ± 0.27
GGGAAGCAAUAUUACGGGGG	-4.18 ± 0.35	-3.18 ± 0.32
GGGAAGCAAUAUUACGGGUU	-3.15 ± 0.21	-1.36 ± 0.15
GGGAAGCAAUAUUACGGUCG	0.00025 ± 0.1	-0.403 ± 0.14
GGGAAGCAAUAUUACGGUGA	-1.76 ± 0.3	-0.447 ± 0.18
GGGAAGCAAUAUUACGGUUA	-1.27 ± 0.11	-0.726 ± 0.1
GGGAAGCAAUAUUACGUAAU	-1.88 ± 0.14	-0.632 ± 0.22
GGGAAGCAAUAUUACGUACA	-1.02 ± 0.14	-0.334 ± 0.24
GGGAAGCAAUAUUACGUAUA	-2.79 ± 0.15	-0.738 ± 0.094
GGGAAGCAAUAUUACGUCAC	-3.08 ± 0.2	-1.77 ± 0.19
GGGAAGCAAUAUUACGUGGA	-2 ± 0.17	-2.34 ± 0.29
GGGAAGCAAUAUUACGUGGU	-4.31 ± 0.27	-3.33 ± 0.47
GGGCAGCAAUAUUACGAAAC	-0.715 ± 0.3	-0.594 ± 0.28
GGGCAGCAAUAUUACGAACU	-0.431 ± 0.065	-0.278 ± 0.09
GGGCAGCAAUAUUACGACCA	-0.297 ± 0.28	0.951 ± 0.41
GGGCAGCAAUAUUACGAGAA	-3.05 ± 0.47	-1.87 ± 0.3
GGGCAGCAAUAUUACGAGCG	-0.755 ± 0.1	0.344 ± 0.12
GGGCAGCAAUAUUACGAGCU	-2.69 ± 0.22	0.481 ± 0.13
GGGCAGCAAUAUUACGAUGA	-1.36 ± 0.12	-0.649 ± 0.11
GGGCAGCAAUAUUACGCAUA	-1 ± 0.092	0.38 ± 0.13
GGGCAGCAAUAUUACGCCGC	-3.33 ± 0.22	-2.27 ± 0.31

Sequence	self-splicing fitness (ln) (30 °C)	self-splicing fitness (ln) (37 °C)
GGGCAGCAAUAUUACGCUAG	-1.86 ± 0.078	-0.741 ± 0.11
GGGCAGCAAUAUUACGGAGA	-4.44 ± 0.46	-2.56 ± 0.22
GGGCAGCAAUAUUACGGAUU	-0.98 ± 0.12	-0.0797 ± 0.1
GGGCAGCAAUAUUACGGCGC	-0.77 ± 0.11	0.0143 ± 0.14
GGGCAGCAAUAUUACGGGGA	-2.97 ± 0.21	-1.56 ± 0.17
GGGCAGCAAUAUUACGGUAC	-1.73 ± 0.097	-0.144 ± 0.1
GGGCAGCAAUAUUACGGUGC	-2.21 ± 0.13	-1.8 ± 0.089
GGGCAGCAAUAUUACGUAGU	-0.605 ± 0.086	-0.727 ± 0.11
GGGCAGCAAUAUUACGUAUG	-3.15 ± 0.23	-1.44 ± 0.22
GGGCAGCAAUAUUACGUAUU	-0.944 ± 0.061	0.0363 ± 0.074
GGGCAGCAAUAUUACGUUGU	-2.7 ± 0.16	-2.77 ± 0.19
GGGCAGCAAUAUUACGUUUC	-2.2 ± 0.094	-0.672 ± 0.098
GGGGAGCAAUAUUACGACAG	-3.9 ± 0.39	-2.33 ± 0.39
GGGGAGCAAUAUUACGACGC	-0.34 ± 0.15	0.117 ± 0.2
GGGGAGCAAUAUUACGAGGG	-2.13 ± 0.19	
GGGGAGCAAUAUUACGAUGC	-1.06 ± 0.42	
GGGGAGCAAUAUUACGCACA	-2.37 ± 0.43	-0.994 ± 0.34
GGGGAGCAAUAUUACGCUAG	-2.63 ± 0.27	
GGGGAGCAAUAUUACGCUCA	-1.05 ± 0.15	-0.61 ± 0.21
GGGGAGCAAUAUUACGCUUC	-3.28 ± 0.4	-2.12 ± 0.49
GGGGAGCAAUAUUACGGCUG	-2.72 ± 0.15	-1.09 ± 0.22
GGGGAGCAAUAUUACGUACU	-1.58 ± 0.17	-0.886 ± 0.16
GGGGAGCAAUAUUACGUCCG	-0.963 ± 0.13	-0.326 ± 0.2
